The chains are these.
B1: Guanyl-specific ribonuclease Sa, P05798 (parent)
chain: DVSGTVCLSALPPEATDTLNLIASDGPFPYSQDGVVFQNRESVLPTQSYGYYHEYTVITPGARTRGTRRIITGEATQEDYYTGDHYATFSLIDQTC
B2: Guanyl-specific ribonuclease T1, P00651 (parent)
chain: MMYSKLLTLTTLLLPTALALPSLVERACDYTCGSNCYSSSDVSTAQAAGYQLHEDGETVGSNSYPHKYNNYEGFDFSVSSPYYEWPILSSGDVYSGGSPGADRVVFNENNQLAGVITHTGASGNNFVECT

In data set [1] the parent is B1. The note with it: Kitasatospora aureofaciens; pH 7; Thermal; CD; MOPS 30 mM; structure 1RGG; whole UniProt chain shown.
In data set [2] the parent is B2. The note with it: Aspergillus oryzae (strain ATCC 42149 / RIB 40), 25 °C, Urea, CD, structure 1RN1, whole UniProt chain shown.

By Tm is commonly meant the temperature at the midpoint of the melting transition.

Regarding E74K, in data set [1], the Tm worked out at 51.1 °C and the “unfolding enthalpy (van 't Hoff)” value was determined as 94 kcal/mol.

On to D25K, for which, in data set [1], the Tm worked out at 50.2 °C and the “unfolding enthalpy (van 't Hoff)” value came to 93 kcal/mol.

Take D75A: the denaturant m value in data set [2] (pH 2.5, glycine 30 mM) stood at 1.69 kcal/mol/M; in data set [2] (pH 7, MOPS 30 mM), 1.21 kcal/mol/M. The “denaturant midpoint (higher = more stable)” value in data set [2] (pH 2.5, glycine 30 mM) was determined as 3.42 M; in data set [2] (pH 7, MOPS 30 mM), 5.67 M.
